Laboratory results: the DeepSol protein solubility set

Experiment: soluble on expression in E. coli; label from the status in PepcDB or PDB records

Sequence	soluble on expression in E. coli
MKPTVNVVFNAHHPKDTQPLDKFFDKELKDTHHLDITVGYISEKSLQYLLLIAGTHPDLTITLTCGMHAREGMTAAQLHHARVLHDYLSDHDRGGVFVIPRLRYHGKIYLFHKNQHTDPIAYIGSANLSAIVPGYTSTFETGVILDPAPEDLVLHLNRDVVPLCVPIDTAHVPIIKDQESPMKHVAEATAVSTSDVVAIMSSPFTYSFDLKLKATASSNLNAHNSGGGARKQKNGSFLARNWYEGEIIVGVETTRLPGYPQNKSEFTAVTDDGWSFVCKISGGNGKNLRSKGDLSILGTWLKSRFIEQGALEYGEDATQENIDRFGRTHMTMRYHPDFDVWSFDLSQTPKP	not soluble
MDVTATPRPHSNTQRPTQAYYVPRKLLECGRGPQSKPTTIDKNEKPIQTSAQQKQKPRPLMDTVISAPPSSLKEKSPQSNRQTKSNKKSSPPPRKSPVMTSSYQVQYPNSPRDLHLVSSTPSSRSSSSMSSNNGIVSPTLTVSSPRIVKGGPQKYSMSRPNAFAPMIAQSDEKECICDRKNTHVVCKRCGYECVGRVQVTCGKHPLILALNDLRECPNPVCHSVQLLECDELDDQDVHDDGVEQLLAEPIEKIDLLS	not soluble
GMFNESDAPQPPKVLSTPLEIAANLRQLQESHDPLIITFHDRSHRFQSYVVHVDRESNTLALDEMIPRDGEKFIENGEHFRVEGFHDGVRIAWECDHALKISEVDGHRCYSGPLPQEVTYHQRRNAFRAALKLSQLVDIILDGAHLKGNGAMRGKLLDISATGCKLRFEGNVEDRLQLGQVYERFKAGNPLGLVDTMVELRHLHYEERINTTFAGVRFHNLSGQAQRKIESFVYQLQREARRFDKDDY	soluble
GAAAGVAAWLPFARAAAIGWMPVANCPMPLAPADKNKRQDELIVLNVSGRRFQTWRTTLERYPDTLLGSTEKEFFFNEDTKEYFFDRDPEVFRCVLNFYRTGKLHYPRYECISAYDDELAFYGILPEIIGDCCYEEYKDRKREN	soluble
MMRTWWLCERTFRARIYVMARERIPEMTINCARERNSTFTSVPTRTWLSSTISAEYVGRNHAHTTPVPANNKDTITTIAEYHCTE	not soluble
MGSDKIHHHHHHMALQWVKRTIKAGAALAGCVLVVTALDPARGSVDAKERVKGIVAAAAMSPAGIPFELAAQEIATIGTRPMAERLSISGELQPVNRVLIRAREAGKILEMNVREGQAVRAGDMLVRFETDELQSTLLLRQSDRDAAEAELMLAMQALARTEQLAAKNIASTEQLDKAKSDVVVKTTRVQSLSSQVDIARLALRNAEIRAPFDGTVTRRVAETGARIGADGELLTLVDTSELEAKVLVATRDIPRVARGQTAELEIDGLAGQIVKGTVERISPVAEDGTRVVAVYLRLANRDGQLWGGMFAGGSILLREKNDALVVPAIALRKDETGYHVLKIQDGHLRRQTVAVGPRWNGGSLIEIGAGLADGETILTVPLPELRPDMAVTIDKAG	not soluble
MSLNEELIKTGDFAKMCAVTKKALYVYEAKGLLKPAVVKDNGYRYYRLEQVDQVATIRLLEKLGSSLQEVGDFFALKDLNERQKYLGKQQEAVEREMAELGKIKSSLEFFDQRISDLKQTGLKKWRLRLARKNTWKSVLLGMVFREGHHHHHH	not soluble
MSLIAPLLVIEDEPAVMSFVRRALERGGYTVVGANSGMQALELLKGQQFQGIISDMRTPGNVDGGGVYHWIREHRPELANRIVFITGDIVNEETVAVLKETGAPCVEKPFRVQDLIATVENTIGKPQQETEGHHHHHH	soluble
MGSDKIHHHHHHMVKGLRQLNNRVDILSLPGAEPEVEEAKAIDEKVNQPPTKKSSFSILSDLTKHVPEFVFELFELAFNLIAVIRLRKTVKEKNITLIYERYSLFMFASVWWAKRHNLPIVLEINDSCQVQRVRSLTFKKLAAKIEGWIFKNATGLVFISTRFKEVAEQAYGEISNSVVSPNGADLDKFIIDETSGLALRSKLGVENKIVLGYVGAFVHWHGIDWFVDLACQKLKETPELVLLLVGDGVAFEGIKKRVIEAGVESQVILPGKVPHHEVSSFLSAMDLGILPDSNDYGSPMKLFEFMAMGKGMIAPDFSPIAEVVQDNATSWLFPASNKQACIDKVFEIVNDREAHQEVGKKARAYIENERQWKHNAEQLLSLVTAREKA	not soluble
QRHQKNQNQQRIQALLEESQRRLKQMINKTHVGLLLINEQGQLFDLNPMAKRLFCLPENVNRQTFAWELFDAGNPNSTTLTLLRDLPKHKELAEISAVETMARRSDGSVFPVLFSLTTFPWHGELYFLATLIDISKRKKAEQSLQLINQELAQRVEERTQALRQAQEQLIESSKMAALGRMSSAITHELNQPLTGLRTLLTTNELLAERGETAMMKANNVLVQKLIDRMASMTSQLKTFAYNKPEKLQALSLTSALEETLRVYQSQLANVDVRVRIPSDLPQIQGEEQRLQQVLGNLISNALDAMQSRDNPQLSIVVTPTNSHVEVVVSDNGCGVALEQLDTIFEPFQTSKKIGEGLGLGLSITANNMRDMNGQVTAKRNPGSGMSFLLRFQLANTID	not soluble
IDGIFIMDAEGHYLDVNPAICSAIGYTRDEFLALDWGVLSRGVDSGWAAASLARIVGGEPLREERTVWTRNGDQLTVELSAHLLPD	not soluble
